Reference: patent US20240247072A1 (KEYMED BIOSCIENCES, published 2024)
Positions count from the first letter of the chain named.

Columns and labels:
[1] = biological target: T1, recombinant trimeric protein of human CD70 extracellular region (human CD70 mIgG Fc (knob) / mouse IgG Fc … (human, UniProt P01863 98-330 = IgG part)); assay: BLI (Octet), biotin antigen on SA probe, Fab in solution
T1 construct: The ELISA and Octet texts say only 'recombinant CD70 protein' / 'CM352 antigen'; also called recombinant human CD70 protein; recombinant CD70 protein
T1 chain 1: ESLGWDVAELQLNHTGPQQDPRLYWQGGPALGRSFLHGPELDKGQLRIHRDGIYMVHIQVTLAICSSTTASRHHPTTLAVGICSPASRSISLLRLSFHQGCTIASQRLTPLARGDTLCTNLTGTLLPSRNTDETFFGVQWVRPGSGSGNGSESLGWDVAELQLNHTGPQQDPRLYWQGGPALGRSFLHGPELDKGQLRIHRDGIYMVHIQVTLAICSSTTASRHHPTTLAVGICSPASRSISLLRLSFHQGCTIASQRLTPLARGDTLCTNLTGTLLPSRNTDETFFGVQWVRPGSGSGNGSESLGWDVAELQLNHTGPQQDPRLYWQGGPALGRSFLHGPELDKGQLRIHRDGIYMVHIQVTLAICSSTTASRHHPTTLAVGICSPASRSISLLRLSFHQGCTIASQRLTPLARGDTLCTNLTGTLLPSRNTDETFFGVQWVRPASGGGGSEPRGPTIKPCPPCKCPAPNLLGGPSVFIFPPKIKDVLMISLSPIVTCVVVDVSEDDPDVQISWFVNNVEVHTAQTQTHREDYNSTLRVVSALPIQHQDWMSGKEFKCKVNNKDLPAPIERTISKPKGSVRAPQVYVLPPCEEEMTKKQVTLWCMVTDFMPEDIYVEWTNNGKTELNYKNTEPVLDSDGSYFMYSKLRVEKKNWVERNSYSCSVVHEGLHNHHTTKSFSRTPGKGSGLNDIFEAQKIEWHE
T1 chain 2: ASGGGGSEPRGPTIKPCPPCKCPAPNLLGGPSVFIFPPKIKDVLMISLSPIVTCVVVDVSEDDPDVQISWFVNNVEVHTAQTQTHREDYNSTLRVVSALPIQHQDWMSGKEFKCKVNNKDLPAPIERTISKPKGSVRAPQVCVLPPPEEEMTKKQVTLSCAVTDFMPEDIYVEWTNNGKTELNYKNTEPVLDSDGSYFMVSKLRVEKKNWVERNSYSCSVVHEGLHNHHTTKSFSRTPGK

[2] = biological target: T2, human CD70, full length, on CHO cells (CHO-human CD70-B07) (human, UniProt P32970 1-193); assay: flow cytometry, Fab on CHO-human CD70 cells
T2 construct: whole, on cells; Stably transfected CHO cells; also called CHO-CD70
T2 sequence (looked up): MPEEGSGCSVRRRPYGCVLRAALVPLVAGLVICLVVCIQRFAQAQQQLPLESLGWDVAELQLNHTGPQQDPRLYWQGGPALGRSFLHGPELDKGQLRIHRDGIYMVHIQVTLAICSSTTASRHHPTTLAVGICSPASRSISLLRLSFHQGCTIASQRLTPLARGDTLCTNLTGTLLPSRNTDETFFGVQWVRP
Procedure: The blank control cell CHO and stably-transfected cell line CHO-CD70 were prepared and added at 5×10⁴ cells/well into a 96-well plate respectively. 50 μL of Fab antibodies with different dilution gradients were added into each well and incubated at 4° C. for 60 minutes. The centrifuge was performed to discard the supernatant. The plate was washed with 0.5% BSA/PBS and added with 50 μL of a secondary antibody solution (Anti-human IgG F (ab′) 2-AF647, Jackson Immuno Research) and incubated at 4° C. for 45 minutes. The excess secondary antibody was washed off with 0.5% BSA. The PBS solution was added to resuspend cells for flow cytometry. The data was collected.

[3] = biological target: T1, recombinant trimeric protein of human …; assay: competition ELISA, Fab titrated, human CD27 coated, biotin-CD70
Procedure: The next day, the plate was washed 3 times with PBS, added with 200 μL of 2% defatted dry milk/PBS, blocked at room temperature for 2 hours, and washed once with PBS, 50 μL of different dilution gradients of Fab antibodies were added and incubated at room temperature for 30 minutes. […] The plate was washed 3 times with PBST and PBS and dried by spinning. A secondary antibody solution Streptavidin-coupled horseradish peroxidase SA-HRP (BD bioscience, Cat. No: 6222697) was diluted with 0.5% BSA in a ratio of 1:8000. 100 μl of the diluent was added into each well and incubate at room temperature for 30 minutes. The plate was washed 3 times with PBST and PBS and dried by spinning. 100 μl of the color development solution (TMB solution, Sigma, Cat. No: T2885) was added into each well and protected from light at 37° C. for reaction. After the substrate developed moderately, 50 μl of 2M concentrated sulfuric acid solution was added into each well to terminate the reaction. The OD450 nm was determined by using an enzyme-linked detector within 30 minutes, and the data was collected.

B1: 2B12 Fab antibody (Fab, V domains shown)
VH: QVQLQQSGPGLVQPSQSLSITCTVSGFSLTTYAVHWVRQSPGKGLEWLGVIWSTGITDYNAAFISRLSISKDNSKSQVFFKMNSLQSDDIAIYYCARNPYYGNLNAMDYWGQGTSVTVSS
VL: DIVLTQSPASLAVSLGQRATISCRASKSVDTSGYSFMHWYQQKPGQPPKLLIYLASNLESGVPARFSGSGSGTDFTLNIHPVEEEDAATYYCQHSRELPLTFGAGTKLELK
notes: Purified Fab from the mouse Fab phage display library
Binder B1 has a koff [1] of 0.000125 s⁻¹, an EC50 [2] of 8.6 nM and an IC50 [3] of 0.29 nM.

B2: 14C12 Fab antibody (Fab, V domains shown)
VH: EVQLQQSGPELVKPGASVKMSCKASGYTFTDYVIHWVKQKPGQGLEWIGYLHPYNDDTKYNEKFKGKATLTSDKSSSTAYMELSSLTSEDSAVYYCARRGYYDYAWFADWGQGTLVTVSA
VL: B1 VL with D30S, T31A, S35T, F36W, M37I, G45R, P47A, L100P, A104G, L110I
notes: as for B1
B2 showed a koff [1] of 0.000321 s⁻¹, an EC50 [2] of 28 nM and an IC50 [3] of 0.79 nM.

B3: 27A3 Fab antibody (Fab, V domains shown)
VH: B1 VH with Q1E, Q6E, A62D, N83D, I90T, Y94F, P99H
VL: B1 VL with D30S, L100Y, A104G, L110I
notes: as for B1
B3 gave a koff [1] of 0.000172 s⁻¹, an EC50 [2] of 12.4 nM and an IC50 [3] of 0.51 nM.

B4: 3B2 Fab antibody (Fab, V domains shown)
VH: B1 VH with Q1E, Q5K, A33G, S87A, I90T, P99S, N105Y, A106V
VL: B1 VL with D30S, T31A, S35N
notes: as for B1
B4 was tested, and the koff [1] was 0.000325 s⁻¹, the EC50 [2] was 14.2 nM and the IC50 [3] was 0.32 nM.

B5: 23A11 Fab antibody (Fab, V domains shown)
VH: B1 VH with T54V, I56S, S87A, I90T, P99I, L104V, N105Y
VL: B1 VL with T31A, P44A, S69R, E85G, L110I
notes: as for B1
With B5 the koff [1] was 0.000403 s⁻¹, the EC50 [2] was 15.6 nM and the IC50 [3] was 0.5 nM.

B6: 32D1 Fab antibody (Fab, V domains shown)
VH: B2 VH with V18L, S84N
VL: B1 VL with R24K, D30S, T31A, S35T, F36W, P47A, L100P, A104G, L110I
notes: as for B1
With B6 the koff [1] was 0.00183 s⁻¹, the EC50 [2] was 8.1 nM and the IC50 [3] was 2.26 nM.

B7: 12A1 Fab antibody (Fab, V domains shown)
VH: B1 VH with N83D, I90T, Y94F, Y100H
VL: B1 VL with D30S, T31A, S35T, F36W, P47A, L100P, A104G, L110I
notes: as for B1
Work on B7 yielded a koff [1] of 0.000317 s⁻¹, an EC50 [2] of 17.7 nM and an IC50 [3] of 1.88 nM.
